According to patent publication US20030228627:

Molecular target: Full-length human Flag-tagged p53 (native, unacetylated) (UniProt P04637)

**Q.** How did the “acetylation of p53 by p300 in the presence of 3H-acetyl CoA (electrophoresis, fluorography)” value turn out when Full-length human histidine-tagged p300 was run?
**A.** p300 efficiently acetylated p53
